Data on two molecules can be found in patent US20030084477, “Genes enhancing disease resistance in plants” (published 2003).

Data set [1] concerns the target T1, GST-Pti5 (Solanum lycopersicum, UniProt O04681 O04681:1-161). In words: EMSA; 25 mM Hepes pH 7.5, 40 mM KCl, 0.1 mM EDTA, 10% glycerol, 1 mM DTT, poly(dA-dT), room temp; WT sequence printed with stray 'to' in the middle. The note with it: tags: N-terminal GST (pGEX, E. coli PR745; cDNA nt 82-782); label: 32P end label. Here is the method:
(§1) The wild type gln2 PR-box 2x ([…] to […]) and mutated PR-box 2x ([…]) were end-labeled by 32P as described by Ausubel, F. M., Brent, R., Kingston, R. E., Moore, D. D., Seidman, J. G., Smith, J. A., and Struhl, K. (1994). Current Protocols in Molecular Biology. (New York: Greene Publish Associates/John Wiley and Sons). Four fmol of probe was mixed with each of the purified GST-fusion proteins in a buffer containing 2 μg poly(dA-dT) (dA-dT), 25 mM Hepes (PH7.5), 40 mM KCl, 0.1 mM EDTA, 10% glycerol, and 1 mM DTT, incubated at room temperature for 15 minutes, and electrophoresed on a 4% polyacrylamide gel in 0.25×TBE buffer. Ohme-Takagi, M. and Shinshi, H. (1995). Ethylene-inducible DNA-binding proteins that interact with an ethylene-responsive element. Plant Cell 7, 173-182. The gel was subsequently dried and exposed to x-ray film. […] In contrast to GST-Pti5 and GST-Pti6, neither GST-Ptil nor GST itself bound to the PR-box.
(In general: In EMSA bound probe runs differently from free probe, usually more slowly.)

Data set [2] deals with T1, GST-Pti5. In words: EMSA; no binding detected. The note with it: tags: N-terminal GST (pGEX, E. coli PR745; cDNA nt 82-782); label: 32P end label. Here is the method: as §1

T1 sequence (O04681 whole entry, the tested form may be a part, one chain of several): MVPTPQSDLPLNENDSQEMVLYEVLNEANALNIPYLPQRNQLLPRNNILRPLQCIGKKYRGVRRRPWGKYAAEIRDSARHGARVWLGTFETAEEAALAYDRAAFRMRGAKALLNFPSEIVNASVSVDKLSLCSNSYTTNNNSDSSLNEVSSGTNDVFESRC

B1: wild type gln2 PR-box 2x (dsDNA)
DNA 1: CATAAGAGCCGCCACTAAAATAAGACCGATCAAATAAGAGCCGCCAT
DNA 2: ATGGCGGCTCTTATTTGATCGGTCTTATTTTAGTGGCGGCTCTTATG
Regarding B1, in the data set with GST-Pti5 [1], the binding result is reported as “binds”.

B2: mutated PR-box 2x (dsDNA)
DNA 1: CATAAGATCCTCCACTAAAATAAGACCGATCAAATAAGATCCTCCAT
DNA 2: ATGGAGGATCTTATTTGATCGGTCTTATTTTAGTGGAGGATCTTATG
Regarding B2, the binding result in the data set with GST-Pti5 [2] was “no binding”.
